Measured values published in patent publication US20170342144A1 (Sanofi, published 2017).
Where a chain is given by its changes, count along the chain named.

T1: human TGFβ3 (human, UniProt P10600 301-412)
T1 sequence: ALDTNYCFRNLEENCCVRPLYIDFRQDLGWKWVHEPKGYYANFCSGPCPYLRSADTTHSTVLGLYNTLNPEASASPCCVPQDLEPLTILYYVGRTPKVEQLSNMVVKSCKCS

T2: human TGFβ2 (human, UniProt P61812 303-414)
T2 construct: also called TGFβ2 homodimer
T2 sequence: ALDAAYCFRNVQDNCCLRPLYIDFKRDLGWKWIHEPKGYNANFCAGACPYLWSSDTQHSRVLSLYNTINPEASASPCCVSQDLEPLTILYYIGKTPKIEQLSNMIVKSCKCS

B1: I52A (antibody, V domains shown)
VH: QVQLVQSGAEVKKPGSSVKVSCKASGYTFSSNVISWVRQAPGQGLEWMGGVAPIVDIANYAQRFKGRVTITADESTSTTYMELSSLRSEDTAVYYCASTLGLVLDAMDYWGQGTLVTVSS
VL: ETVLTQSPGTLSLSPGERATLSCRASQSLGSSYLAWYQQKPGQAPRLLIYGASSRAPGIPDRFSGSGSGTDFTLTISRLEPEDFAVYYCQQYADSPITFGQGTRLEIK
notes: GC1008 IgG4 variant
B2: I52E (antibody, V domains shown)
VH: B1 VH with A52E
VL: B1 VL
notes: GC1008 IgG4 variant
B3: I52D (antibody, V domains shown)
VH: B1 VH with A52D
VL: B1 VL
notes: GC1008 IgG4 variant
B4: I52H (antibody, V domains shown)
VH: B1 VH with A52H
VL: B1 VL
notes: GC1008 IgG4 variant
B5: I52S (antibody, V domains shown)
VH: B1 VH with A52S
VL: B1 VL
notes: GC1008 IgG4 variant
B6: I52W (antibody, V domains shown)
VH: B1 VH with A52W
VL: B1 VL
notes: GC1008 IgG4 variant
B7: I52R (antibody, V domains shown)
VH: B1 VH with A52R
VL: B1 VL
notes: GC1008 IgG4 variant
B8: I52Q (antibody, V domains shown)
VH: B1 VH with A52Q
VL: B1 VL
notes: GC1008 IgG4 variant
B9: V55K (antibody, V domains shown)
VH: B1 VH with A52I, V55K
VL: B1 VL
notes: GC1008 IgG4 variant
B10: I52N (antibody, V domains shown)
VH: B1 VH with A52N
VL: B1 VL
notes: GC1008 IgG4 variant
B11: I52G (antibody, V domains shown)
VH: B1 VH with A52G
VL: B1 VL
notes: GC1008 IgG4 variant
B12: I52C (antibody, V domains shown)
VH: B1 VH with A52C
VL: B1 VL
notes: GC1008 IgG4 variant
B13: I52K (antibody, V domains shown)
VH: B1 VH with A52K
VL: B1 VL
notes: GC1008 IgG4 variant
B14: V55F (antibody, V domains shown)
VH: B1 VH with A52I, V55F
VL: B1 VL
notes: GC1008 IgG4 variant
B15: S30E (antibody, V domains shown)
VH: B1 VH with S30E, A52I
VL: B1 VL
notes: GC1008 IgG4 variant
B16: S31W (antibody, V domains shown)
VH: B1 VH with S31W, A52I
VL: B1 VL
notes: GC1008 IgG4 variant
B17: Y27H (antibody, V domains shown)
VH: B1 VH with Y27H, A52I
VL: B1 VL
notes: GC1008 IgG4 variant
B18: S30W (antibody, V domains shown)
VH: B1 VH with S30W, A52I
VL: B1 VL
notes: GC1008 IgG4 variant

The binders below were run against T1, human TGFβ3 (assay: Biacore, immobilised TGFβ).

binding result | Binder
no binding (tested: 50 nM) | B1
no binding (tested: 50 nM) | B2
no binding (tested: 50 nM) | B3
no binding (tested: 50 nM) | B4
no binding (tested: 50 nM) | B5
no binding (tested: 50 nM) | B6
no binding (tested: 50 nM) | B7
no binding (tested: 50 nM) | B8
no binding (tested: 50 nM) | B9
no binding (tested: 50 nM) | B10
no binding (tested: 50 nM) | B11
no binding (tested: 50 nM) | B12
no binding (tested: 50 nM) | B13

Each binder was assayed against T2, human TGFβ2 (assay: Biacore, immobilised TGFβ).

binding result | Binder
no binding (tested: 50 nM) | B1
no binding (tested: 50 nM) | B2
no binding (tested: 50 nM) | B3
no binding (tested: 50 nM) | B4
no binding (tested: 50 nM) | B5
no binding (tested: 50 nM) | B6
no binding (tested: 50 nM) | B7
no binding (tested: 50 nM) | B8
no binding (tested: 50 nM) | B9
no binding (tested: 50 nM) | B10
no binding (tested: 50 nM) | B11
no binding (tested: 50 nM) | B12
no binding (tested: 50 nM) | B13

Each binder was assayed against T3, human TGFβ1 (human, UniProt P01137 279-390) (assay: Biacore, immobilised TGFβ).
T3 construct: also called TGFβ1 homodimer
T3 sequence (P01137 279-390 limits assumed): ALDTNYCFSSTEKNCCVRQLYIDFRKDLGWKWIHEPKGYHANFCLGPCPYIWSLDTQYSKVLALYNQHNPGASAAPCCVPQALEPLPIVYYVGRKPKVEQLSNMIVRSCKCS

binding result | Binder
no binding (tested: 50 nM) | B1
no binding (tested: 50 nM) | B2
no binding (tested: 50 nM) | B3
no binding (tested: 50 nM) | B4
no binding (tested: 50 nM) | B5
no binding (tested: 50 nM) | B6
no binding (tested: 50 nM) | B7
no binding (tested: 50 nM) | B8
no binding (tested: 50 nM) | B9
no binding (tested: 50 nM) | B10
no binding (tested: 50 nM) | B11
no binding (tested: 50 nM) | B12
no binding (tested: 50 nM) | B13

The binders below were run against T1, human TGFβ3 (assay: Biacore off-rate vs wt GC1008).
Description: (§1) Plasmids encoding either the GC1008 heavy chain or light chain were used as a template in PCR-based mutagenesis reactions. Mutations to the encoding DNA were made to create 155 single amino acid substitutions of the encoded heavy chain amino acid sequence and one single amino acid substitution of the encoded light chain amino acid sequence. A QuikChange® Lightning Site-Directed Mutagenesis kit (Agilent Technologies, Santa Clara Calif.) was used according to the manufacturer's instructions to create DNA mutations using a set of forward and reverse primers, either designed for a specific amino acid or for all 20 amino acids with a degenerate codon (NNK). After sequencing confirmation, identified mutant DNA was paired with a wild-type light or heavy chain DNA for transfection into an Expi293F™ host cell suspension (Life Techonologies Corp., Grand Island, N.Y.). At 4 days post-transfection, conditioned media (1 mL) was harvested and purified using a 1 mL Protein A PhyTip® column (PhyNexus, Inc., San Jose, Calif.) and a PureSpeed™ 12-channel pipette (Rainin Instrument LLC, Oakland, Calif.). Purified variant antibody samples were analyzed in duplicate on a Biacore® 3000 (GE Healthcare) at 50 nM concentrations, using the 100 RU level TGFβ1, 2, and 3 immobilized surfaces. The off-rate (kd) of the variants was divided by the kd of the wild-type control to obtain the fold change in the kd. […] A heat map was generated to visualize the results. Variants that completely lost affinity for TGFβ were shown in red without numbers.

kd mutant/kd wt | Binder
1.2 | B14
1.1 | B15
1.6 | B16
1.4 | B17
0.3 | B18

The binders below were run against T2, human TGFβ2 (assay: Biacore off-rate vs wt GC1008).
Description: as §1

kd mutant/kd wt | Binder
0.9 | B14
1.4 | B15
1.4 | B16
1.4 | B17
0.4 | B18

What follows are binders tested against T3, human TGFβ1 (assay: Biacore off-rate vs wt GC1008).
Description: as §1

kd mutant/kd wt | Binder
1.2 | B14
1.2 | B15
1.7 | B16
1.5 | B17
0.7 | B18

These binders were tested against T1, human TGFβ3 (assay: Biacore, 3.33-90 nM, 1:1 global fit, vs wt GC1008).
Experimental: (§2) In FIG. 6C, seventeen mutants were selected and scaled up to produce sufficient amount of purified protein for KD (equilibrium constant=kd/ka) analysis by Biacore. Multiple concentrations (90, 30, 10 and 3.33 nM) were used in duplicate on the 150 RU level TGFβ1, 2, and 3 immobilized surfaces. KD was calculated using global curve fitting analysis for a 1-to-1 Langmuir binding model. The experimental data from all four concentrations were used for calculation except for I54N and I54R mutants, where only the top 2 concentrations were used. The fold changes in KD were compared to the fold changes in kd (off rate) presented in FIG. 6B, and a heat map was generated for visualization. Similar fold changes were observed from the two data sets, confirming the validity of using kd as a parameter for screening of 155 single mutants as shown in FIG. 6B.

KD mutant/KD wt | Binder
0.8 | B14
0.8 | B15
1.3 | B16
1.1 | B17
0.3 | B18

The binders below were run against T2, human TGFβ2 (assay: Biacore, 3.33-90 nM, 1:1 global fit, vs wt GC1008).
Experimental: as §2

KD mutant/KD wt | Binder
0.6 | B14
1.6 | B15
1.3 | B16
1.3 | B17
0.4 | B18

What follows are binders tested against T3, human TGFβ1 (assay: Biacore, 3.33-90 nM, 1:1 global fit, vs wt GC1008).
Experimental: as §2

KD mutant/KD wt | Binder
1 | B14
1.5 | B15
1.3 | B16
1.2 | B17
0.7 | B18

What follows are binders tested against T1, human TGFβ3 (assay: Biacore off-rate vs wt GC1008, 50 nM).
Procedure, shortened: (§3)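 Surface plasmon resonance on a Biacore 3000 measured how fast purified antibody variants dissociated from TGFβ isoforms immobilized at about 100 RU. Variants carried single heavy- or light-chain substitutions and were produced by transient Expi293F transfection with Protein A cleanup. Samples at 50 nM were tested in duplicate, and each variant kd was divided by the wild-type control kd to give fold change.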

kd var/kd wt | Binder
1.2 | B14
1.1 | B15
1.6 | B16
1.4 | B17
0.3 | B18

These binders were tested against T2, human TGFβ2 (assay: Biacore off-rate vs wt GC1008, 50 nM).
Procedure, shortened: as §3

kd var/kd wt | Binder
0.9 | B14
1.4 | B15
1.4 | B16
1.4 | B17
0.4 | B18

The binders below were run against T3, human TGFβ1 (assay: Biacore off-rate vs wt GC1008, 50 nM).
Procedure, shortened: as §3

kd var/kd wt | Binder
1.2 | B14
1.2 | B15
1.7 | B16
1.5 | B17
0.7 | B18
